Test results: patent publication US20070212679

Target: T1, human GST-E1 (Boston Biochem), P22314
T1 chain: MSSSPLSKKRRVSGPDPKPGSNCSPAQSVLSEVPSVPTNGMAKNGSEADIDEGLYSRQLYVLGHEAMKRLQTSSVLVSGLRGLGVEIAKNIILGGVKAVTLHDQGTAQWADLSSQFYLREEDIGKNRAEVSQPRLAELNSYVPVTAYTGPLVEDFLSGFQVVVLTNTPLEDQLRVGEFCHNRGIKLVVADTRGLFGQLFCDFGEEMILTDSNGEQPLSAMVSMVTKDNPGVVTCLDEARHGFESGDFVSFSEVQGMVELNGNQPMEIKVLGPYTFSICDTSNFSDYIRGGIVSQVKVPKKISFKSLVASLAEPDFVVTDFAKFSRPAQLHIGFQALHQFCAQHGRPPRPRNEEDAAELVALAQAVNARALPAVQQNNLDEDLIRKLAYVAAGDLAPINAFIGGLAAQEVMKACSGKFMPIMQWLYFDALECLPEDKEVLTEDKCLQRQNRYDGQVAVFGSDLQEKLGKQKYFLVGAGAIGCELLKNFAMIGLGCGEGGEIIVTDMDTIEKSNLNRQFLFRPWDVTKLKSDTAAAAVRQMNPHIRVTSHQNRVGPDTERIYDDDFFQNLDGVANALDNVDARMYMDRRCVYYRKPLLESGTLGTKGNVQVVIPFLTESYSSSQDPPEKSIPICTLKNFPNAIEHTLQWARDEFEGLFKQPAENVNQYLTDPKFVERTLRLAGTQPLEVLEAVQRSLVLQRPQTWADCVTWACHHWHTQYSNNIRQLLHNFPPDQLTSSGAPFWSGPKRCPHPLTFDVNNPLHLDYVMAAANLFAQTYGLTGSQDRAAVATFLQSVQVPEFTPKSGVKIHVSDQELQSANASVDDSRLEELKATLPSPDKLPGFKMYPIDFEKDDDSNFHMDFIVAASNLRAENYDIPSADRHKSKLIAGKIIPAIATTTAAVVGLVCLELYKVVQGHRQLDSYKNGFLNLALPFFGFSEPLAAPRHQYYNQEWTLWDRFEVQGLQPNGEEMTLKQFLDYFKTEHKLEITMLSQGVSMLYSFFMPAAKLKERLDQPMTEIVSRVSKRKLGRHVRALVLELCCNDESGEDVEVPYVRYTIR

B1: His6-Parkin (full-length human Parkin fused to an N-terminal histidine tag, from E. coli, refolded) (protein)
chain: IYICTIIIIISSGLVPRGSGMKETAAAKFERQHMDSPDLGTDDDDKAMADIGSAATMIVFVRFNSSHGFPVEVDSDTSIFQLKEVVAKRQGVPADQLRVIFAGKELRNDWTVQNCDLDQQSIVHIVQRPWRKGQEMNATGGDDPRNAAGGCEREPQSLTRVDLSSSVLPGDSVGLAVILHTDSRKDSPPAGSPAGRSIYNSFYVYCKGPCQRVQPGKLRVQCSTCRQATLTLTQGPSCWDDVLIPNRMSGECQSPHCPGTSAEFFFKCGAHPTSDKETPVALHLIATNSRNITCITCTDVRSPVLVFQCNSRHVICLDCFHLYCVTRLNDRQFVHDPQLGYSLPCVAGCPNSLIKELHHFRILGEEQYNRYQQYGAEECVLQMGGVLCPRPGCGAGLLPEPDQRKVTCEGGNGLGCGFAFCRECKEAYHEGECSAVFEASGTTTQAYRVDERAAEQARWEAASKETIKKTTKPCPRCHVPVEKNGGCMHMKCPQPQCRLEWCWNCGCEWNRVCMGDHWFDV
How did the “ubiquitination of Parkin in the absence of UbcH7 (biotin-ubiquitin detected on blot with NeutrAvidin-HRP)” value turn out when B1 was run?
Its value is “some reaction product was seen in the absence of UbcH7 when Parkin was incubated with E1 and ubiquitin for 90 minutes”.
